Results taken from PMC8310136.

Molecular target: NT*MNV VPg (Murine norovirus (MNV), UniProt Q80J95 871-994)
Experiment: competition; 100-fold excess over labelled PP9 RNA
Conditions: protein: recombinant, tags: N-terminal His6-StrepII-spidroin NT*-enterokinase site-GGSRS linker, label: none

B1: ssDNA competitor (ssDNA)
DNA: TATGCGGGCGAAACTTCTGGGAATAGTCCTGACAACCCCTATTGCGATCAGCTCTTTTGCTAGCTCG
  binding result: no binding

B2: dsDNA competitor (dsDNA)
DNA 1: TATGCGGGCGAAACTTCTGGGAATAGTCCTGACAACCCCTATTGCGATCAGCTCTTTTGCTAGCTCG
DNA 2: CGAGCTAGCAAAAGAGCTGATCGCAATAGGGGTTGTCAGGACTATTCCCAGAAGTTTCGCCCGCATA
blunt
  binding result: no binding
